Values belong to the binder of their own block, whether it stands above or below them.
Columns and labels:
[1] = molecular target: C3b (component obtained after hydrolysis of complement component 3, C3) (UniProt P01024); assay: BLI (Octet RED96), GFP tagged Nanofitin captured on anti-GFP Nanofitin biosensor, C3b in solution, 1:1 fit
[2] = molecular target: C3b (component obtained after hydrolysis of complement component 3, C3) (UniProt P01024); assay: ELISA screen of optimized Nf1 variants
[3] = molecular target: C3b (component obtained after hydrolysis of complement component 3, C3) (UniProt P01024); assay: biolayer interferometry
[4] = molecular target: C3b (component obtained after hydrolysis of complement component 3, C3) (UniProt P01024); assay: biolayer interferometry; B10 by full chemical synthesis
[5] = molecular target: C3b (component obtained after hydrolysis of complement component 3, C3) (UniProt P01024); assay: biolayer interferometry; B10 recombinant from E. coli; untagged B10, recombinant from E. coli

B1: B10 (SEQ ID NO: 25), GFP tagged anti-C3 Nanofitin (designed binder, not shown: large carriers)
chain: MVKVKFDATGEEKEVDTSKISAVYRTGKDVLFSYDDNGKIGWGYVSEKDAPKELLDLLARAERE
Kd [1]: 7.31 nM
koff [1]: 0.000433 s⁻¹
kon [1]: 59200 M⁻¹ s⁻¹
OD 450 nm [2]: > 4 OD 450 nm

B6: B10 Nanofitin without N- or C-terminal tag (designed binder)
chain: MVKVKFDATGEEKEVDTSKISAVYRTGKDVLFSYDDNGKIGWGYVSEKDAPKELLDLLARAERE
Kd [4]: 18 nM
Kd [5]: 18.5 nM

B7: H03 (SEQ ID NO: 26), GFP tagged anti-C3 Nanofitin (designed binder, not shown: large carriers)
chain: MVKVKFAATGEEKEVDTSKIANVYRVGKDVLFSYDDNGKIGWGYVSEKDAPKELLDLLARAERE
Kd [1]: 2.89 nM
koff [1]: 0.000188 s⁻¹
kon [1]: 65200 M⁻¹ s⁻¹
OD 450 nm [2]: > 4 OD 450 nm

B8: B10 Nanofitin with N-terminal peptide (10-mers) tag and C-terminal peptide (15-mers) tag (designed binder, not shown: small tags and cut ends)
chain: MVKVKFDATGEEKEVDTSKISAVYRTGKDVLFSYDDNGKIGWGYVSEKDAPKELLDLLARAERE
Kd [3]: 2.5 nM

Now from value to binder:

Kd [3]: 7.3 nM
B2: B10 Nanofitin with N-terminal peptide (10-mers) tag and C-terminal 30 kDa protein (designed binder, not shown: large carriers; small tags and cut ends)
chain: MVKVKFDATGEEKEVDTSKISAVYRTGKDVLFSYDDNGKIGWGYVSEKDAPKELLDLLARAERE

Kd [3]: 11.5 nM
B3: B10 Nanofitin with N-terminal peptide (10-mers) tag and C-terminal Nanofitin (designed binder, not shown: small tags and cut ends)
chain: MVKVKFDATGEEKEVDTSKISAVYRTGKDVLFSYDDNGKIGWGYVSEKDAPKELLDLLARAERE

Kd [3]: 8.2 nM
B4: B10 Nanofitin with N-terminal peptide (10-mers) tag (designed binder, not shown: small tags and cut ends)
chain: MVKVKFDATGEEKEVDTSKISAVYRTGKDVLFSYDDNGKIGWGYVSEKDAPKELLDLLARAERE

Kd [3]: 6.7 nM
B5: B10 Nanofitin with N-terminal 48 kDa protein (designed binder, not shown: small tags and cut ends)
chain: MVKVKFDATGEEKEVDTSKISAVYRTGKDVLFSYDDNGKIGWGYVSEKDAPKELLDLLARAERE
